We go through 3 molecules from US20240190915A1 (KLINIKUM RECHTS DER ISAR DER TECHNISCHEN UNIVERSIT T M NCHEN, published 2024).

Where a chain is given by its changes, count along the chain named.

Assay [1] concerns the target T1, AGR2 (human, endogenous in PDAC cells) (human, UniProt O95994 21-175, limits assumed).
T1 construct: Endogenous protein co-immunoprecipitated from Capan2 cell lysate
T1 sequence (looked up): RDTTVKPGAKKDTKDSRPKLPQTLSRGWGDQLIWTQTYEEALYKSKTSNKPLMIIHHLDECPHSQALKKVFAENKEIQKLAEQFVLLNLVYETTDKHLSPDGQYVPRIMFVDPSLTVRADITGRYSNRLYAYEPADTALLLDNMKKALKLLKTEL
Kind of assay: co-IP competition in Capan2 cells (FIG. 5B).

Assay [2] has as its target Polr2a (mouse, endogenous) (mouse, UniProt P08775 1-1970). The assay can be described thus: co-IP, endogenous proteins, mouse pancreatic tissue.
The target of assay [3] is T1, AGR2 (human, endogenous in PDAC cells). The assay can be described thus: co-IP competition in PDAC cells, dose-dependent inhibition of POLR2A-AGR2 binding.

NTAIYY (also called bioactive hexapeptide) [hexapeptide NTAIYY (SEQ ID NO:2)]: the binding result in assay [1] was “binds”.

B1: Agr2 (mouse, endogenous) (other)
chain: T1 sequence (looked up) with R1K, P7S, T13P, K44R, K50R, I54V, N74H, M109V, A135S, L141Y
notes: Endogenous protein co-immunoprecipitated from mouse pancreatic tissue lysate
On to B1, for which the binding result in assay [2] was “binds”.

B2: hexapeptide PTTIYY (SEQ ID NO:4) (peptide)
peptide: PTTIYY
notes: Synthetic, previously described peptide used as positive control; liposome-encapsulated form; also called bioactive hexapeptide; positive control
As to B2, the binding result in assay [3] is on record as “binds”.
